Target: GST-NSD2-SET (Homo sapiens, UniProt O96028 941-1240)
Experiment: EMSA

Sequence of GST-NSD2-SET (O96028 941-1240): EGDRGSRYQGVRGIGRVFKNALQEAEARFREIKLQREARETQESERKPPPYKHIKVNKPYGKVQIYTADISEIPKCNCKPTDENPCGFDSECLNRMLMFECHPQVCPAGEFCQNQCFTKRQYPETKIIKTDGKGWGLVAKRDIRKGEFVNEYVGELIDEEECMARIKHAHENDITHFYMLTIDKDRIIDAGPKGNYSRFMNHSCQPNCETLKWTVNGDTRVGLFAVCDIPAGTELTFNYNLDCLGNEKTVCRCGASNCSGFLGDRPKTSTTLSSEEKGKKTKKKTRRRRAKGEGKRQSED

B1: 41-bp dsDNA (dsDNA)
DNA 1: CTCTCTTTGAGGACACCAACCTGGCGGCCATCCACGCCAAG
DNA 2: CTTGGCGTGGATGGCCGCCAGGTTGGTGTCCTCAAAGAGAG
B1: binds.

Source: paper PMC2797197
